According to patent publication US20150159134A1, “METHOD FOR PRODUCING RETINAL PIGMENT EPITHELIAL CELLS” (PFIZER LIMITED, priority 2013, published 2015):
“Also recorded” adds a separate entry of the source.

Tests used:
Format in all cases: cell-based, human
Shef-1 hESCs [1] = assay: First replating step with supplemented media (immunocytochemistry, qPCR)
Excerpt: Cells replated at Day 12 were maintained from Day 9 to Day 12 in DMEM KSRXF alone before replating. […] Mature RPE cells sample obtained by spontaneous differentiation as disclosed in Example 10 (a) was used as a control to compare the similarity between the populations obtained upon the first replating step of directed differentiation and mature RPE cells. 19 days post replating, cells were fixed for immunocytochemistry and samples were collected for qPCR. […] QPCR analysis with a panel of markers also indicated Day 9 to be the optimum time for replating (FIGS. 4C, 4D and 4E). Similar results were obtained when cells were cultured on different matrices e.g Matrigel, Cellstart or Fibronectin before and after replate.

WA26 hESCs = assay: Duration of exposure to activin A (CRALBP immunostaining); conditions: 100 ng/ml activin A
Protocol: On Day 9, cells were replated into 96 well CellBind plates coated with Matrigel or Cellstart at a density of 500000 cells/cm^2. The cells were maintained in either DMEM KSRXF alone or DMEM KSRXF supplemented with 100 ng/ml activin A for different lengths of time e.g 3 days, 5 days, 10 days or 18 days. At D9-18, cells were fixed for immunostaining and stained for CRALBP, a marker of RPE cells.

[2] = tested on: induced pluripotent cells (iPSCs); assay: Directed differentiation of iPSCs (immunostaining); conditions: following replating at Day 9 in the presence of Activin A
Protocol: The directed differentiation protocol was performed on induced pluripotent cells (iPSCs). IPSCs were generated from erythroblasts obtained from healthy volunteers and reprogrammed using the CytoTune-iPS Reprogramming kit (Life Technologies, A13780-01/02). IPSCs were seeded in E8 medium at a density of 240000 cells/cm^2 and differentiated to Day 9-19 of the directed differentiation protocol with early replating. Induced cells refer to cells treated with LDN193189/SB-431542 from Day 2 to Day 6 followed by BMP4/7 from Day 6 to Day 9. Uninduced cells are maintained without exposure to both LDN193189/SB-431542 and BMP4/7. Immunostaining was performed for markers of interest. […] Following the second replete step at Day 9-19 and culturing for a period of 45 days, iPSCs derived RPE expressed a panel of RPE markers to similar levels seen in RPE derived by directed differentiation from ES cells as obtained by the protocol of example 8 (see FIGS. 15E, 15F and 15G).

Shef-1 hESCs [3] = assay: Induction of RPE markers MITF and PMEL17 by BMP pathway activation (qPCR, immunocytochemistry)
Protocol: This example illustrates the effect of a BMP pathway activator on RPE marker expression. Shef-1 hESCs were seeded onto Matrigel coated 96-well plates at a density of 125000 cells/cm^2. […] Cells for the uninduced control were left untreated. On Day 6, 100 ng/ml BMP4/7 or 100 ng/ml activin A+10 mM Nicotinamide or nothing was added to the media for 3 days. On Day 9, BMP4/7 or activin A and Nicotinamide were withdrawn and cells were treated with DMEM KSRXF alone for 4 days. Samples were prepared for RNA extraction and qPCR analysis.
Immunocytochemistry was carried out in 96-well or 384-well format. Media was aspirated and 50 μL 4% paraformaldehyde (PFA) was added to each well and incubated for 35 minutes at room temperature. PFA was aspirated and cells washed 3×100 uL PBS(+/+). Cells were incubated for 1 hour at room temperature in the dark in blocking buffer (PBS(+/+)/5% normal donkey serum (NDS)/0.3% TritonX100). 1° antibodies were made up in PBS(+/+)/1% normal donkey serum (NDS)/0.3% TritonX100. 60 μL 1° antibody solution was added to each well and incubated for 1 hour at room temperature in the dark. Solution was aspirated and cells washed 3×100 uL PBS(+/+). 2° antibodies were made up in PBS(+/+)/1% normal donkey serum (NDS)/0.3% TritonX100. 60 uL 2° antibody solution was added to each well and incubated for 1 hour at room temperature in the dark. […]

Shef-1 hESCs [4] = assay: Alternative BMP pathway activators, MITF expression (immunostaining, qPCR); conditions: Day 13; BMPs Day 6-9: 50-200 ng/ml BMP4/7 heterodimer, 200 ng/ml BMP4, 300 ng/ml BMP7, 100 ng/ml BMP2/6
Protocol: Shef-1 hESCs were seeded onto Matrigel coated 96-well plates at a density of 125000 cells/cm^2. […] On Day 9, BMPs were withdrawn and cells maintained in DMEM KSRXF alone for 4 days. On Day 13, MITF expression was tested by Immunostaining and qPCR analysis.

B1: activin A: activin pathway activator (protein, UniProt P08476 311-426, looked up)
Inhibin beta A chain: GLECDGKVNICCKKQFFVSFKDIGWNDWIIAPSGYHANYCEGECPSHIAGTSGSSLSFHSTVINHYRMRGHSPFANLKSCCVPTKLRPMSMLYYDDGQNIIKKDIQNMIVEECGCS
mature RPE marker expression (CRALBP, MERTK) by immunocytochemistry (Shef-1 hESCs [1]; replating at D9, 100 ng/ml activin A, 19 days post replating): optimum and yielded high levels of RPE marker expression
induction of RPE cells differentiation / RPE markers by short exposure (WA26 hESCs): sufficient for inducing RPE cells differentiation; also recorded: sufficient to induce expression of RPE markers
RPE marker CRALBP expression (immunostaining) [2]: upregulated

B2: BMP4/7: recombinant BMP4/7 heterodimer protein, BMP pathway activator (protein, UniProt P12644 293-408; P18075 293-431, looked up)
Bone morphogenetic protein 4: SPKHHSQRARKKNKNCRRHSLYVDFSDVGWNDWIVAPPGYQAFYCHGDCPFPLADHLNSTNHAIVQTLVNSVNSSIPKACCVPTELSAISMLYLDEYDKVVLKNYQEMVVEGCGCR
Bone morphogenetic protein 7: STGSKQRSQNRSKTPKNQEALRMANVAENSSSDQRQACKKHELYVSFRDLGWQDWIIAPEGYAAYYCEGECAFPLNSYMNATNHAIVQTLVHFINPETVPKPCCAPTQLNAISVLYFDDSSNVILKKYRNMVVRACGCH
modifications: heterodimer
expression of RPE markers MITF and PMEL17 (immunocytochemistry) (Shef-1 hESCs [3]; LDN193189/SB-431542 followed by BMP4/7): confirmed expression of RPE markers
expression of RPE genes MITF and PMEL17 (qPCR) (Shef-1 hESCs [3]; added Day 6 for 3 days after 4 days LDN193189/SB-431542, 100 ng/ml BMP4/7 or 100 ng/ml activin A+10 mM Nicotinamide, vs uninduced or LDN193189/SB-431542 only controls): induced expression of RPE genes
MITF expression (immunostaining and qPCR) (Shef-1 hESCs [4]): induced expression of MITF to a similar level
survival of replated cells (Shef-1 hESCs [1]; replated into DMEM KSRXF with 100 ng/ml BMP4/7): did not survive

B3: BMP7: BMP pathway activator (protein, UniProt P18075 293-431, looked up)
Bone morphogenetic protein 7: STGSKQRSQNRSKTPKNQEALRMANVAENSSSDQRQACKKHELYVSFRDLGWQDWIIAPEGYAAYYCEGECAFPLNSYMNATNHAIVQTLVHFINPETVPKPCCAPTQLNAISVLYFDDSSNVILKKYRNMVVRACGCH
MITF expression (immunostaining and qPCR) (Shef-1 hESCs [4]): induced expression of MITF to a similar level

B4: BMP4: BMP pathway activator (protein, UniProt P12644 293-408, looked up)
Bone morphogenetic protein 4: SPKHHSQRARKKNKNCRRHSLYVDFSDVGWNDWIVAPPGYQAFYCHGDCPFPLADHLNSTNHAIVQTLVNSVNSSIPKACCVPTELSAISMLYLDEYDKVVLKNYQEMVVEGCGCR
MITF expression (immunostaining and qPCR) (Shef-1 hESCs [4]): induced expression of MITF to a similar level
